Test results as given in patent US20220048967A1 (published 2022).
Numbered stars: 1 amine (or outer) side, 2 acyl side, 3 side chain; on linkers, the order of the positions; unused ones are H or OH. Square brackets hold non-standard residues; d marks the D form. Side chains are listed from the residue outwards. Ends that are not written are not given here. * marks the point of attachment. C18 diacid = O=C(O)CCCCCCCCCCCCCCCCC(=O)*; γGlu = O=C(O)[C@H](CCC(=O)[*:2])N[*:1]; AEEA = NCCOCCOCC(=O)O; Aib = CC(C)(N)C(=O)O

T1: human gastric inhibitory peptide receptor (GIPR) (human, UniProt P48546 22-466)
T1 sequence (looked up): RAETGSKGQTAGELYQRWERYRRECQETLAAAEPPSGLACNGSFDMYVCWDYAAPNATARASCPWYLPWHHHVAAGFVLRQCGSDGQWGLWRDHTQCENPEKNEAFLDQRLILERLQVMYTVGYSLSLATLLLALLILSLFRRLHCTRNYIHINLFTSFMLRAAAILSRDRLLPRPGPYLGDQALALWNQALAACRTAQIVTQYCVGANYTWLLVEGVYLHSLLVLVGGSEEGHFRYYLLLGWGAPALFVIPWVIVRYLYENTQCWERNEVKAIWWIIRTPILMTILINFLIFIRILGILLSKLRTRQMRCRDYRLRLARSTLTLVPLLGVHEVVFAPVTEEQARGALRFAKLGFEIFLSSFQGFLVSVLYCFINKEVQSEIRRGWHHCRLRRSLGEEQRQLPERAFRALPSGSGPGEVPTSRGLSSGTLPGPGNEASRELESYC


Legend:
[1] = biological target: T1, human gastric inhibitory peptide …; assay: cell-based or functional assay
[2] = biological target: human GLP-1 receptor (GLP-1R) (human, UniProt P43220 24-463); assay: cell-based or functional assay

hGIPR cAMP EC50 ratio [1]	hGIPR cAMP Rel EC50 [1] [nM]	hGLP1R cAMP EC50 ratio [2]	hGLP1R cAMP Rel EC50 [2] [nM]	Binder
0.627	0.328	0.4	0.128	Y[Aib]EGTFTSDYSILLDKK([AEEA-AEEA-γGlu-C18 diacid])AQ[Aib]EFIEYLIEGGPSSG-NH2 (N-terminus assumed; SMILES CC[C@H](C)[C@H](NC(=O)[C@H](CC(C)C)NC(=O)[C@H](Cc1ccc(O)cc1)NC(=O)[C@H](CCC(=O)O)NC(=O)[C@@H](NC(=O)[C@H](Cc1ccccc1)NC(=O)[C@H](CCC(=O)O)NC(=O)C(C)(C)NC(=O)[C@H](CCC(N)=O)NC(=O)[C@H](C)NC(=O)[C@H](CCCCNC(=O)COCCOCCNC(=O)COCCOCCNC(=O)CC[C@H](NC(=O)CCCCCCCCCCCCCCCCC(=O)O)C(=O)O)NC(=O)[C@H](CCCCN)NC(=O)[C@H](CC(=O)O)NC(=O)[C@H](CC(C)C)NC(=O)[C@H](CC(C)C)NC(=O)[C@@H](NC(=O)[C@H](CO)NC(=O)[C@H](Cc1ccc(O)cc1)NC(=O)[C@H](CC(=O)O)NC(=O)[C@H](CO)NC(=O)[C@@H](NC(=O)[C@H](Cc1ccccc1)NC(=O)[C@@H](NC(=O)CNC(=O)[C@H](CCC(=O)O)NC(=O)C(C)(C)NC(=O)[C@@H](N)Cc1ccc(O)cc1)[C@@H](C)O)[C@@H](C)O)[C@@H](C)CC)[C@@H](C)CC)C(=O)N[C@@H](CCC(=O)O)C(=O)NCC(=O)NCC(=O)N1CCC[C@H]1C(=O)N[C@@H](CO)C(=O)N[C@@H](CO)C(=O)NCC(N)=O) [Example 270]
2.82	0.0442	0.627	0.0883	Y[Aib]EGTFTSDYSILLDKK([AEEA-AEEA-γGlu-C18 diacid])AQ[Aib]AFIEYLIEGGPSSG-NH2 (N-terminus assumed; SMILES CC[C@H](C)[C@H](NC(=O)[C@H](CC(C)C)NC(=O)[C@H](Cc1ccc(O)cc1)NC(=O)[C@H](CCC(=O)O)NC(=O)[C@@H](NC(=O)[C@H](Cc1ccccc1)NC(=O)[C@H](C)NC(=O)C(C)(C)NC(=O)[C@H](CCC(N)=O)NC(=O)[C@H](C)NC(=O)[C@H](CCCCNC(=O)COCCOCCNC(=O)COCCOCCNC(=O)CC[C@H](NC(=O)CCCCCCCCCCCCCCCCC(=O)O)C(=O)O)NC(=O)[C@H](CCCCN)NC(=O)[C@H](CC(=O)O)NC(=O)[C@H](CC(C)C)NC(=O)[C@H](CC(C)C)NC(=O)[C@@H](NC(=O)[C@H](CO)NC(=O)[C@H](Cc1ccc(O)cc1)NC(=O)[C@H](CC(=O)O)NC(=O)[C@H](CO)NC(=O)[C@@H](NC(=O)[C@H](Cc1ccccc1)NC(=O)[C@@H](NC(=O)CNC(=O)[C@H](CCC(=O)O)NC(=O)C(C)(C)NC(=O)[C@@H](N)Cc1ccc(O)cc1)[C@@H](C)O)[C@@H](C)O)[C@@H](C)CC)[C@@H](C)CC)C(=O)N[C@@H](CCC(=O)O)C(=O)NCC(=O)NCC(=O)N1CCC[C@H]1C(=O)N[C@@H](CO)C(=O)N[C@@H](CO)C(=O)NCC(N)=O) [Example 266]
1.5	0.108	0.974	0.054	Y[Aib]EGTFTSDYSILLDKK([AEEA-AEEA-γGlu-C18 diacid])AQ[Aib]AFIEYLIEGG-NH2 (N-terminus assumed; SMILES CC[C@H](C)[C@H](NC(=O)[C@H](CC(C)C)NC(=O)[C@H](Cc1ccc(O)cc1)NC(=O)[C@H](CCC(=O)O)NC(=O)[C@@H](NC(=O)[C@H](Cc1ccccc1)NC(=O)[C@H](C)NC(=O)C(C)(C)NC(=O)[C@H](CCC(N)=O)NC(=O)[C@H](C)NC(=O)[C@H](CCCCNC(=O)COCCOCCNC(=O)COCCOCCNC(=O)CC[C@H](NC(=O)CCCCCCCCCCCCCCCCC(=O)O)C(=O)O)NC(=O)[C@H](CCCCN)NC(=O)[C@H](CC(=O)O)NC(=O)[C@H](CC(C)C)NC(=O)[C@H](CC(C)C)NC(=O)[C@@H](NC(=O)[C@H](CO)NC(=O)[C@H](Cc1ccc(O)cc1)NC(=O)[C@H](CC(=O)O)NC(=O)[C@H](CO)NC(=O)[C@@H](NC(=O)[C@H](Cc1ccccc1)NC(=O)[C@@H](NC(=O)CNC(=O)[C@H](CCC(=O)O)NC(=O)C(C)(C)NC(=O)[C@@H](N)Cc1ccc(O)cc1)[C@@H](C)O)[C@@H](C)O)[C@@H](C)CC)[C@@H](C)CC)C(=O)N[C@@H](CCC(=O)O)C(=O)NCC(=O)NCC(N)=O) [Example 267]

The next lines start with the binder.

Binder	hGIPR cAMP EC50 ratio [1]	hGIPR cAMP Rel EC50 [1] [nM]	hGLP1R cAMP EC50 ratio [2]	hGLP1R cAMP Rel EC50 [2] [nM]
Y[Aib]EGTFTSDYSILLDEK([AEEA-AEEA-γGlu-C18 diacid])AQ[Aib]AFIEYLIEGG-NH2 (N-terminus assumed; SMILES CC[C@H](C)[C@H](NC(=O)[C@H](CC(C)C)NC(=O)[C@H](Cc1ccc(O)cc1)NC(=O)[C@H](CCC(=O)O)NC(=O)[C@@H](NC(=O)[C@H](Cc1ccccc1)NC(=O)[C@H](C)NC(=O)C(C)(C)NC(=O)[C@H](CCC(N)=O)NC(=O)[C@H](C)NC(=O)[C@H](CCCCNC(=O)COCCOCCNC(=O)COCCOCCNC(=O)CC[C@H](NC(=O)CCCCCCCCCCCCCCCCC(=O)O)C(=O)O)NC(=O)[C@H](CCC(=O)O)NC(=O)[C@H](CC(=O)O)NC(=O)[C@H](CC(C)C)NC(=O)[C@H](CC(C)C)NC(=O)[C@@H](NC(=O)[C@H](CO)NC(=O)[C@H](Cc1ccc(O)cc1)NC(=O)[C@H](CC(=O)O)NC(=O)[C@H](CO)NC(=O)[C@@H](NC(=O)[C@H](Cc1ccccc1)NC(=O)[C@@H](NC(=O)CNC(=O)[C@H](CCC(=O)O)NC(=O)C(C)(C)NC(=O)[C@@H](N)Cc1ccc(O)cc1)[C@@H](C)O)[C@@H](C)O)[C@@H](C)CC)[C@@H](C)CC)C(=O)N[C@@H](CCC(=O)O)C(=O)NCC(=O)NCC(N)=O) [Example 269]	0.825	0.257	0.828	0.0595
Y[Aib]EGTFTSDYSILLDEK([AEEA-AEEA-γGlu-C18 diacid])AQ[Aib]AFIEYLIEGGPSSG-NH2 (N-terminus assumed; SMILES CC[C@H](C)[C@H](NC(=O)[C@H](CC(C)C)NC(=O)[C@H](Cc1ccc(O)cc1)NC(=O)[C@H](CCC(=O)O)NC(=O)[C@@H](NC(=O)[C@H](Cc1ccccc1)NC(=O)[C@H](C)NC(=O)C(C)(C)NC(=O)[C@H](CCC(N)=O)NC(=O)[C@H](C)NC(=O)[C@H](CCCCNC(=O)COCCOCCNC(=O)COCCOCCNC(=O)CC[C@H](NC(=O)CCCCCCCCCCCCCCCCC(=O)O)C(=O)O)NC(=O)[C@H](CCC(=O)O)NC(=O)[C@H](CC(=O)O)NC(=O)[C@H](CC(C)C)NC(=O)[C@H](CC(C)C)NC(=O)[C@@H](NC(=O)[C@H](CO)NC(=O)[C@H](Cc1ccc(O)cc1)NC(=O)[C@H](CC(=O)O)NC(=O)[C@H](CO)NC(=O)[C@@H](NC(=O)[C@H](Cc1ccccc1)NC(=O)[C@@H](NC(=O)CNC(=O)[C@H](CCC(=O)O)NC(=O)C(C)(C)NC(=O)[C@@H](N)Cc1ccc(O)cc1)[C@@H](C)O)[C@@H](C)O)[C@@H](C)CC)[C@@H](C)CC)C(=O)N[C@@H](CCC(=O)O)C(=O)NCC(=O)NCC(=O)N1CCC[C@H]1C(=O)N[C@@H](CO)C(=O)N[C@@H](CO)C(=O)NCC(N)=O) [Example 268]	0.851	0.239	0.935	0.0572
Y[Aib]EGTFTSDYSILLDKK([AEEA-AEEA-γGlu-C18 diacid])AQ[Aib]EFIEYLIEGG-NH2 (N-terminus assumed; SMILES CC[C@H](C)[C@H](NC(=O)[C@H](CC(C)C)NC(=O)[C@H](Cc1ccc(O)cc1)NC(=O)[C@H](CCC(=O)O)NC(=O)[C@@H](NC(=O)[C@H](Cc1ccccc1)NC(=O)[C@H](CCC(=O)O)NC(=O)C(C)(C)NC(=O)[C@H](CCC(N)=O)NC(=O)[C@H](C)NC(=O)[C@H](CCCCNC(=O)COCCOCCNC(=O)COCCOCCNC(=O)CC[C@H](NC(=O)CCCCCCCCCCCCCCCCC(=O)O)C(=O)O)NC(=O)[C@H](CCCCN)NC(=O)[C@H](CC(=O)O)NC(=O)[C@H](CC(C)C)NC(=O)[C@H](CC(C)C)NC(=O)[C@@H](NC(=O)[C@H](CO)NC(=O)[C@H](Cc1ccc(O)cc1)NC(=O)[C@H](CC(=O)O)NC(=O)[C@H](CO)NC(=O)[C@@H](NC(=O)[C@H](Cc1ccccc1)NC(=O)[C@@H](NC(=O)CNC(=O)[C@H](CCC(=O)O)NC(=O)C(C)(C)NC(=O)[C@@H](N)Cc1ccc(O)cc1)[C@@H](C)O)[C@@H](C)O)[C@@H](C)CC)[C@@H](C)CC)C(=O)N[C@@H](CCC(=O)O)C(=O)NCC(=O)NCC(N)=O) [Example 271]	0.614	0.334	1.35	0.0352
